# Reference: US20190010458
# Target: T1, HA-Etv2 (Mus musculus) (UniProt P41163)
# T1 sequence: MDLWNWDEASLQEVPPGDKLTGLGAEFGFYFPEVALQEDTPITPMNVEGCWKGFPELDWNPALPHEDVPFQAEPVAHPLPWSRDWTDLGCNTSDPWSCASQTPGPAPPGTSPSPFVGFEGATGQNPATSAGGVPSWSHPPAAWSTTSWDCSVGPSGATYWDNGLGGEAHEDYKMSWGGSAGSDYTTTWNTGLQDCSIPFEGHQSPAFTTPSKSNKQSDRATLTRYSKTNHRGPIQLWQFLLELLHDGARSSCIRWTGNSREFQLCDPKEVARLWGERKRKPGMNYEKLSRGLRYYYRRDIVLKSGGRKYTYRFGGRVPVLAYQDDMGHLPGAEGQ
# Settings: ChIP-qPCR with anti-HA, Dox-induced EBs
substance,measurement,value
miR-130a upstream promoter region (ChIP amplicon),binding signal (fold enrichment),15
